Experiment [1] concerns the target T1, wild type bovine endothelial nitric oxide synthase (eNOS) (bovine) (UniProt P29473).
T1 sequence (looked up): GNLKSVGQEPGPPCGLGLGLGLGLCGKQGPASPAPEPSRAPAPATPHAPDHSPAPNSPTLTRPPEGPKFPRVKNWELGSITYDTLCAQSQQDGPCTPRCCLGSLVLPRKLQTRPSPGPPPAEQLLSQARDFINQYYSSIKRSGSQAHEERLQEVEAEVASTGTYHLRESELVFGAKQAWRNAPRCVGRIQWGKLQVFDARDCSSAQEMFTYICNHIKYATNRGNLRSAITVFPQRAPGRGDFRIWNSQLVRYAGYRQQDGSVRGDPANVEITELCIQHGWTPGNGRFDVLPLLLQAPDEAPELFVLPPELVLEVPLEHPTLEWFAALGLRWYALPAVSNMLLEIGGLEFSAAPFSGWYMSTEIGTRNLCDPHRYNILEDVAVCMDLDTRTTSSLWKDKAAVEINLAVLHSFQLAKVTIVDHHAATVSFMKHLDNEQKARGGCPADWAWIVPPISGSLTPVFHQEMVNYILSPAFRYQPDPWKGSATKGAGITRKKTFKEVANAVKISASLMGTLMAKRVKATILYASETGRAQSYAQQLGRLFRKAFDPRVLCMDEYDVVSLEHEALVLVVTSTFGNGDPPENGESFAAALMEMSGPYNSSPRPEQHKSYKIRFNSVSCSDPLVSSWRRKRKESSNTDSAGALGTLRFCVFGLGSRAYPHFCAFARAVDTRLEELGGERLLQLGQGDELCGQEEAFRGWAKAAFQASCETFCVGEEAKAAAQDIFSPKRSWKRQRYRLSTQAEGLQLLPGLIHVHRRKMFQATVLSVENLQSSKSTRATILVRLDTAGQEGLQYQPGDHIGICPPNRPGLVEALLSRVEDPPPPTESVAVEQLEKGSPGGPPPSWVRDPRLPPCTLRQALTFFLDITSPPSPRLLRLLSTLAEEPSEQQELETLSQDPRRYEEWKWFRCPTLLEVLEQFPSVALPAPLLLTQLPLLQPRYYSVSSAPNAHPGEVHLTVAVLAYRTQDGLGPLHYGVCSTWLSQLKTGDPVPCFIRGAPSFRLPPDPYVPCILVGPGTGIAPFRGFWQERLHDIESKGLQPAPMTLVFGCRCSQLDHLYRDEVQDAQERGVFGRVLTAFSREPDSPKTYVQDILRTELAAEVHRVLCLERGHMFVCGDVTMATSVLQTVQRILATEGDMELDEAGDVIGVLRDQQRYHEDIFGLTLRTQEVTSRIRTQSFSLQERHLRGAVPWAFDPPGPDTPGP
The experiment is described as follows: cell-based or functional assay.

Experiment [2] addresses S1179D eNOS (bovine) (bovine) (UniProt P29473). The experiment is described as follows: cell-based or functional assay.

“HA-tagged wild-type Akt (protein kinase B) (enzyme)” returned a phosphorylation of eNOS in 32P-orthophosphate labeled COS cells in experiment [1] of 2 fold. “constitutively active form of Akt (myr-Akt) (enzyme)” registered a cGMP accumulation (assayed in COS cells) (pmol cGMP/mg protein) in experiment [1] of 11.6. Consider calmodulin, for which, in experiment [1], the EC50 for CaM, NADPH-mediated cytochrome c reduction as a function of CaM concentration worked out at 13 nM and the EC50 for CaM, NOS activity (L-Citrulline) as a function of CaM concentration was 8 nM. In experiment [2], this substance had an EC50 for CaM, NADPH-mediated cytochrome c reduction as a function of CaM concentration of 21 nM and an EC50 for CaM, NOS activity (L-Citrulline) as a function of CaM concentration of 7 nM. For the substance “HA-tagged kinase inactive Akt (K179M) (enzyme)”, the cGMP accumulation (assayed in COS cells) in experiment [1] turned out to be 5.8 pmol cGMP.
